Assay results as given in PMC6370785.

Assays:
[1] = molecular target: recombinant human TRAIL/Apo2 Ligand (rhTRAIL) (human) (UniProt P50591); test: SDS-PAGE and Western blot; 100 ng rhTRAIL as positive control on the same blot; whether BS3 was added to it is not told
[2] = molecular target: soluble TRAIL (sTRAIL), secretable trimer-forming variant of human TRAIL (human | yeast) (UniProt P50591); test: SDS-PAGE and Western blot without cross-linker; 293T culture supernatant (48 h after transfection) without BS3, 4-20% SDS-PAGE, Western blot with anti-TRAIL
[3] = molecular target: soluble TRAIL (sTRAIL), secretable trimer-forming variant of human TRAIL (human | yeast) (UniProt P50591); test: cross-linking; 293T culture supernatant (48 h after transfection) with 1 mM BS3, 4-20% SDS-PAGE, Western blot with anti-TRAIL

Substance	stoichiometry N [1]	stoichiometry N [2]	stoichiometry N [3]
recombinant human TRAIL/Apo2 Ligand (rhTRAIL) (from UniProt P50591 1-281)	3		
soluble TRAIL (sTRAIL), secretable trimer-forming variant of human TRAIL (from UniProt P50591 114-281) (ligand)		2	3
